Laboratory results reported in patent US7335638B2, “Prevention and treatment of mycoplasma-associated diseases” (priority 2000, dated 2008).

System: adenocarcinoma of Walker
Test: Treatment of experimental adenocarcinoma in rats (Walker tumor)
Assay type: in vivo, rat
Settings: both died after 12 days of treatment; prolactine added to TS, PDTC and plant extract
Source text: Malignant neoplasia was induced experimentally by inoculation of 500,000 cells of adenocarcinoma of Walker in the right flank of several rats in order to verify if the use of simultaneous anti-proliferative and anti-oxidative drugs may decrease the growing of the neoplasia and the level of metastases. Usually the animals receiving such inoculation of adecarcinoma cells survived for 10-12 days and presented metastasis to many ganglia, liver and lung. Nine of these animals were inoculated after 7 days of tumor cells with 0.5 ml of trans-sialidase TS (supernatant of culture of T. cruzi) as described in the U.S. patent application Ser. No. 10/086,913, filed Mar. 1, 2002 and with 0.75 mg of PDTC, into the peritoneum every day. The particles containing DNA or RNA prepared from plant extracts (garlic, Ginkgo biloba and tomato) as described above was also administered. All animals received 0.5 ml of garlic extract by subcutaneous route (Table 1 below). The tumors were similar in size for all animals at the beginning of the treatment, i.e. 2.8×2.7 cm.
Rats 1-4 were followed until death. Rats 3 and 4 received 0.5 ml of Ginkgo biloba's extract, every day. The tumors increased slower in all 4 animals receiving plant extracts than the controls. […]
Prolactin and/or growth hormone administration to diminish these effects was also evaluated. […]

B1: prolactine: ovine prolactine from Sigma, neuroendocrine hormone (protein, UniProt P01240 31-229, looked up)
Prolactin: TPVCPNGPGNCQVSLRDLFDRAVMVSHYIHNLSSEMFNEFDKRYAQGKGFITMALNSCHTSSLPTPEDKEQAQQTHHEVLMSLILGLLRSWNDPLYHLVTEVRGMKGVPDAILSRAIEIEEENKRLLEGMEMIFGQVIPGAKETEPYPVWSGLPSLQTKDEDARHSAFYNLLHCLRRDSSKIDTYLKLLNCRIIYNNNC
tumor at necropsy, Rat 4 compared with Rat 1: smaller size of the tumor with less microscopic necrosis
